PMC4822050

What was measured:
SRA-Spacer = molecular target: T1, SRA-Spacer (human, UniProt Q96T88 414-674); test: X-ray crystallography; 3.15 A; Spacer residues 617-674 not built; ITC: 10 mM HEPES pH 8.0, 100 mM NaCl, 18 C; EMSA: 20 mM HEPES pH 7.5, 100 mM NaCl, 8% glycerol, 1 mM DTT, on ice; pull-down: 20 mM HEPES-NaOH pH 8.0, 100 mM NaC
T1 sequence: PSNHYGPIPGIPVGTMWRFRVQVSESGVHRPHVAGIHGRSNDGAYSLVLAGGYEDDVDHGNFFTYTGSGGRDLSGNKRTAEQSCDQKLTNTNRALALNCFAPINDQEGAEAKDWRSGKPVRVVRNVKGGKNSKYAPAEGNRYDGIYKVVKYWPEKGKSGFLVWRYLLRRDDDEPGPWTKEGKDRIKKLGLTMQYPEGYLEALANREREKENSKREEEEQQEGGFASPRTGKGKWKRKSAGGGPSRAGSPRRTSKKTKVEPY

UHRF1 full-length = molecular target: T2, UHRF1 full-length (human, UniProt Q96T88 1-793); test: pull-down; H3 (1-17) peptide; affinity not affected; ITC: 10 mM HEPES pH 8.0, 100 mM NaCl, 18 C; EMSA: 20 mM HEPES pH 7.5, 100 mM NaCl, 8% glycerol, 1 mM DTT, on ice; pull-down: 20 mM HEPES-NaOH pH 8.0, 100 mM NaC
T2 sequence: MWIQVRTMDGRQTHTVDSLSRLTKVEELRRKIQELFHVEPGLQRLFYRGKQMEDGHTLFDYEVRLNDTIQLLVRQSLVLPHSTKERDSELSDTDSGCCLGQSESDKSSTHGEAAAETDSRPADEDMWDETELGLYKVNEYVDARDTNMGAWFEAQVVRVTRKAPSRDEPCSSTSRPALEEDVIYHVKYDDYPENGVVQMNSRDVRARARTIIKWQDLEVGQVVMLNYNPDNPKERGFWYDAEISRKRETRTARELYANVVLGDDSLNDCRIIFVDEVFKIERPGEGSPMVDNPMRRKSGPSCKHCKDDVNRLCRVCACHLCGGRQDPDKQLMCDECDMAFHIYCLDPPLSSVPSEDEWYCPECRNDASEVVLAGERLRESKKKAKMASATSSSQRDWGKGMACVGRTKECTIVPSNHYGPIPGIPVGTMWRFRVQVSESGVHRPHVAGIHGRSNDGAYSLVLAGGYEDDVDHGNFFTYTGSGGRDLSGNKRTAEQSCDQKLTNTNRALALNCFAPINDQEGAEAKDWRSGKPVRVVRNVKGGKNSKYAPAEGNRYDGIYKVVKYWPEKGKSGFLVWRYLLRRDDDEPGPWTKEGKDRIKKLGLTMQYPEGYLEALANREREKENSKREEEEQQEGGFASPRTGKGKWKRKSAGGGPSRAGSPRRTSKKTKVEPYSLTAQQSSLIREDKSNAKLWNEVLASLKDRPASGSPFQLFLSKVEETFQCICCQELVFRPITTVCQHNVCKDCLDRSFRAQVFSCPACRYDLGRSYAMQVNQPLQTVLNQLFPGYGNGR

B1: 18-bp hm-DNA (crystal) (dsDNA)
DNA 1: CATCGTCCCTGCGGGCCC
DNA 2: GGGCCCGCAGGGACGATG
modifications: 5-methyl-dC at position 6 of strand 2 (GGGCCXGCAGGGACGATG)
- binding result (SRA-Spacer): binds

B2: biotin-hm-DNA 12 bp (pull-down) (dsDNA)
DNA 1: GAGGCCGCCTGC
DNA 2: GCAGGCGGCCTC
modifications: 5-methyl-dC at position 6 of strand 1 (GAGGCXGCCTGC)
- binding result (UHRF1 full-length): binds
